Experimental data published in publication PMC4643982.

Biological target: T1, EutR::MBP (Salmonella enterica serovar Typhimurium SL1344) (UniProt Q9ZFU7)
T1 sequence: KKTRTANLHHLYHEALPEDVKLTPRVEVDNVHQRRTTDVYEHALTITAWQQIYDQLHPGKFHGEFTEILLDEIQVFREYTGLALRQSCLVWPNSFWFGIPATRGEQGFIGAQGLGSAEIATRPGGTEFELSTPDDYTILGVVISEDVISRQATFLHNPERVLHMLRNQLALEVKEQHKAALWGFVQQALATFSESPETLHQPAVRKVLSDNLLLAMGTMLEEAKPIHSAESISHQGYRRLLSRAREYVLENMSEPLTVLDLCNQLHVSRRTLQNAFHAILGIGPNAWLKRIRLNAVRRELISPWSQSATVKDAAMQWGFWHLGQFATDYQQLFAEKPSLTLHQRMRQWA
Experiment: competition
Conditions: 60 mM HEPES pH 7.5, 300 mM KCl, 25 mM MgCl2, 5 mM EDTA, 3 mM DTT, 500 ug/ml BSA, 50 ng poly-dIdC, 1 mM ethanolamine, 150 nM vitamin B12; 25 min at 25 C; 6% …

Q: How did the binding turn out when “CCGGAATTGCCAGCTGGGGCGCCCTCTGGTAAGGTTGGGAAGCCCTGCAAAGTAAACTGGATGGCTTTCTTGCCGCCAAGGATCTGATGGCGCAGGGGATCAAGATCTGATCAAGAGACAGGATGAGGATCGTTTCGCATGATTGAACAAGA (double strand) [kan promoter probe]” was run?
A: The binding was “no binding”.
